Assay results reported in patent US20110123533A1.

T1: CD133 (prominin) (human) (UniProt O43490)
T1 sequence (glycosylated (the AC133 epitope is known to be glycosylated), looked up): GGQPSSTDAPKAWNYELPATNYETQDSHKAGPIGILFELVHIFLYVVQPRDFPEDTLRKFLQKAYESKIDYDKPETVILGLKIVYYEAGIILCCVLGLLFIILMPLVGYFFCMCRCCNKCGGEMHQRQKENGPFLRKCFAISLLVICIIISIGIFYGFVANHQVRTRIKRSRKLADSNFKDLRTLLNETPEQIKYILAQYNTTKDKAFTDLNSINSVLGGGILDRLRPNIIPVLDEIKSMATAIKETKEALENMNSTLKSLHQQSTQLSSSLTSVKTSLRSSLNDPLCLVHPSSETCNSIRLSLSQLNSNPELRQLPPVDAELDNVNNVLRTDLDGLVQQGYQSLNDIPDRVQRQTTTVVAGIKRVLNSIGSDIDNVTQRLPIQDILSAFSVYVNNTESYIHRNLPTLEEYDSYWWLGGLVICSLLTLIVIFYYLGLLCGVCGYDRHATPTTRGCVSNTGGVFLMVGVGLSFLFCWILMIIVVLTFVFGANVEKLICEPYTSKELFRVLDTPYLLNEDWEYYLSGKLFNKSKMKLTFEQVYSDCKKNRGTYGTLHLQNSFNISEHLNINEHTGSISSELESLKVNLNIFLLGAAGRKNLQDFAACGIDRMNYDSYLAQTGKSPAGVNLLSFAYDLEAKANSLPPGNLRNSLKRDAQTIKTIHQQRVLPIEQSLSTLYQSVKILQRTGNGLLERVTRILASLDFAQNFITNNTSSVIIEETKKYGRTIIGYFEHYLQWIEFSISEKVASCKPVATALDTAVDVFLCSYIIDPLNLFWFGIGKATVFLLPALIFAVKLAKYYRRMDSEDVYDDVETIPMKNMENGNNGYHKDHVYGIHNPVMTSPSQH

B1: AC133 mouse monoclonal antibody purified from hybridoma (antibody, from another filing, V domains shown)
VH: QVQLQQSGAELVRPGASVKLSCKASGYTFSDFEMHWVKQTPVHGLEWIGDIDPGTGDTAYNLKFKGKATLTTDKSSSTAYMELRSLTSEDSAVYYCTLGAFVYWGQGTLVTVSA
VL: DVVVTQTPLSLPVSFGDQVSISCRSSQSLANSYGNTYLSWYLHKPGQSPQLLIYGISNRFSGVPDRFSGSGSGTDFTLKISTIKPEDLGMYYCLQGTHQPYTFGGGTKLEIKR

Legend:
CD133 (prominin) (human) [1] = molecular target: T1, CD133 (prominin) (human); experiment: ELISA on membrane fraction of Caco-2 cells
CD133 (prominin) (human) [2] = molecular target: T1, CD133 (prominin) (human); experiment: ELISA on membrane fraction from Caco-2 cells
CD133 (prominin) (human) [3] = molecular target: T1, CD133 (prominin) (human); experiment: ELISA on plasma membrane fraction of Caco-2 cells; relative equilibrium constant

Molecule | fold lower relative binding affinity than anti-CD133 monoclonal antibody (CD133 (prominin) (human) [1]) | fold lower affinity than the monoclonal antibody from which the scFv was derived (CD133 (prominin) (human) [2]) | Kd (CD133 (prominin) (human) [3])
scFv-AC133 | 2 fold | 3 fold | 0.155 µM
B1 | – | – | 0.083 µM
